Key:
[1] = Reactivity of PB-1 with known AGEs by competitive ELISA (Example 31); format: binding; settings: immobilized A-peak-BSA
Experimental: Competitive ELISA was conducted using the reagents described in Example 13. A solution of A-peak-BSA prepared into 1 μg/mL in a coating solution was added at 100 μL/well to a 96-well microtiter plate (Costar) and incubated overnight at 4° C.
Each well after the immobilization treatment was washed three times with a washing solution (300 μL), and a blocking solution (200 μL) was added thereto and left at room temperature for 1 hour.
GAL691 (prepared in Example 16), GLAP (prepared in Example 12), Lys-hydroxy-triosidine (prepared in Example 17), GA-pyridine (prepared in Example 28), GOLD (prepared in Example 29), and Z-Lys were each dissolved in a phosphate buffer solution (0.2 M, pH 7.4) to prepare a 100 mM solution. Then, a 10 mM solution was prepared by dilution 10-fold with a diluting solution containing BSA (1 mg/mL, FUJIFILM Wako Pure Chemical Corp.). Sample solutions of 4-fold dilution series of 0.04, 0.16, 0.63, and 2.5 mM were further prepared with a diluting solution containing a 10% (v/v) phosphate buffer solution and 1 mg/mL BSA. Ten-fold dilutions of a phosphate buffer solution with a diluting solution containing 1 mg/mL BSA were prepared as blank solutions containing no sample in the same way as above. A 0.1 μg/mL solution of the PB-1 antibody was prepared with a diluting solution containing 1 mg/mL BSA.
Each well treated with the blocking solution was washed three times with a washing solution (300 μL), and the sample solutions of 4-fold dilution series (50 μL each) and the PB-1 antibody dilution solution (50 μL) were added thereto, stirred with a plate mixer for 2 minutes, and then incubated at room temperature for 1 hour.
After the competitive reaction, each well was washed three times with a washing solution (300 μL), and peroxidase-labeled anti-mouse IgG (H+L) polyclonal antibody, F(ab′)2 fragment (Kirkegaard & Perry Laboratories, Inc.) diluted into 0.05 μg/mL with a diluting solution containing 1 mg/mL BSA was added at 100 μL/well and left standing at room temperature for 1 hour.
After washing three times with a washing solution (300 μL), a substrate solution (ELISA POD substrate TMB kit (Popular), Nacalai Tesque, Inc.) was added at 100 μL/well and incubated at room temperature for 10 minutes under light shielding. Then, color development was terminated by the addition of 2 N sulfuric acid (50 μL).
Absorbance was measured at a dominant wavelength of 450 nm and a sub-wavelength of 650 nm with a microplate reader (Cytation 5, BioTek Instrument Inc.), and the absorbance at the sub-wavelength was subtracted from the absorbance at the dominant wavelength. Change in the absorbance of GAL691, GLAP, Lys-hydroxy-triosidine, GA-pyridine, GOLD, and Z-Lys was indicated as relative values to the absorbance of the blank solution.

[2] = system: CD31; test: Endothelial-to-mesenchymal transition inhibition test, real-time PCR (Example 15); format: cell-based, human; settings: HUVEC; antibody pre-reacted with Glycer-AGEs-BSA
Experimental: (§1) 10 μL of Glycer-AGEs-BSA (10 mg/mL) prepared in Example 1, PBS, and 90 μL of SJ-5 (10 mg/mL) or a control antibody (10 mg/mL) were added to a 1.5 mL tube (Watson). Alternatively, 90 μL of a PBS solution of control BSA (10 mg/mL) was added. These solutions were left standing at room temperature for 10 minutes. Then, a supernatant was recovered by centrifugation at 14000 rpm for 15 minutes using a centrifuge (Thermo Fisher Scientific Inc.).
(§2) HUVEC was cultured in a 10 cm dish using 10 mL of a medium for HUVEC.
(§3) The cultured HUVEC was washed with 10 mL of PBS. Then, 1 mL of trypsin-EDTA was added thereto and left standing at room temperature for 3 minutes. HUVEC thus left standing was confirmed to be detached from the dish, and trypsin-EDTA was neutralized by the addition of 10 mL of a medium for HUVEC. After the neutralization, the whole amount was transferred to a 50 mL tube and centrifuged at 1500 rpm for 3 minutes using a centrifuge.
(§4) After the centrifugation, the supernatant was discarded, and precipitated cells were resuspended by the addition of 1 mL of a medium for HUVEC. A 10 μL aliquot from the resuspension was mixed with 10 μL of Trypan Blue, and 10 μL thereof was added to a counting chamber. Then, the number of live cells was counted in Auto Cell Counter EVE. The cell suspension was diluted into 2.5×10^5 cells/mL with a medium for HUVEC and inoculated at 400 μL/well to the Matrigel prepared in (1). After the inoculation, each reaction solution prepared in (2) was added at 100 μL/well, followed by culture for 8 hours in a CO2 incubator.
(§5) Each well was washed three times with 1 mL of PBS, and Cell Recovery Solution (Corning Inc.) was added at 500 μL/well.
(§6) The cells and the Matrigel matrix were scraped off using Blue Chip (Watson), recovered into a 1.5 mL tube, and transferred to the 1.5 mL tube after rinsing of each well again with 500 μL of Cell Recovery Solution. The 1.5 mL tube was mixed by inversion five times and then left standing on ice for 1 hour to confirm that the Matrigel matrix was completely degraded. After the Matrigel matrix degradation, a supernatant was discarded by centrifugation at 800 rpm at 4° C. Precipitated cells were gently suspended in 1 mL of ice-cooled PBS and centrifuged at 800 rpm at 4° C. to discard a supernatant. Precipitated cells were gently suspended again in 1 mL of ice-cooled PBS and centrifuged at 800 rpm at 4° C.
(§7) 125 μL of CellAmp Washing Buffer attached to the kit was added to the cells precipitated by centrifugation, and mixed. […]
(§8) After the addition, real-time PCR was performed with QuantStudio™ 12K Flex real-time PCR system (Thermo Fisher Scientific Inc.) to quantify gene expression levels. […]

[3] = system: α-SMA; test: as above; format: cell-based, human; settings: HUVEC; antibody pre-reacted with Glycer-AGEs-BSA
Experimental: as §1, §2, §3, §4, §5, §6, §7, §8

B1: PB-1: mouse monoclonal antibody raised against A-peak-BSA; heavy-chain variable region SEQ ID NO 18, light-chain variable region SEQ ID NO 22 (antibody, listed as Mus musculus, V domains shown)
VH: EVRLQQSGPELVKPGTSVKISCKASGYSFTGYYMHWVKQSPVKSLEWIGRIIPYNGATSYNQNFKDKASLTVDKSSRTAYMDLHSLTSEDSAVYYCARSRYYGRAPYYFDYWGQGTTLTVSS
VL: DVVVTQTPLSLPVSLGDQASISCRSSQSIVHSNGNTYLEWYLQKPGQSPKLLIYKVSNRFSGVPDRISGSGSGTDFTLKISRVEAGDLGVYSCFQGSHVPFTFGSGTKLEIK
[1]
  recognition of GA-pyridine: does not recognize
  recognition of GLAP: does not recognize
  recognition of GOLD: does not recognize
  recognition of Lys-hydroxy-triosidine: does not recognize

B2: SJ-5: mouse monoclonal antibody raised against GAL13-MSA; heavy-chain variable region SEQ ID NO 4, light-chain variable region SEQ ID NO 8 (antibody, listed as Mus musculus, V domains shown)
VH: EVMLVESGGRLVKPGGSLKLSCAASGFTFSSYGMSWVRQTPEKRLEWVATISGGGSYTYYPDSVKGRFTISRDNVKNNLYLQMSSLRSEDTALYYCARRGAYGDYGWFAYWGQGTLVTVSA
VL: DIVLTQSPATLSVTPGDSVSLSCRASQSINNNLHWYQQKSHESPRLLIKCASQSISGIPSRFSGSGSGTDFTLSINSVETEDFGMYFCQQSNSWPLTFGAGTKLELK
[2]
  suppression of CD31 decrease caused by Glycer-AGEs-BSA: suppressible
[3]
  suppression of α-SMA increase caused by Glycer-AGEs-BSA: suppressible
